Here are results for one protein from patent US20080242608.

The data set addresses T1, GST-FOXO3 peptide P2 (amino acids 154-259), O43524.
T1 chain: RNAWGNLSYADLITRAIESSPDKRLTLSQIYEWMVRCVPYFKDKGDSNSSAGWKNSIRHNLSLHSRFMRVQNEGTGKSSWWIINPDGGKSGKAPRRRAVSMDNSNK

B1: FLAG-MST1 (protein)
chain: METVQLRNPPRRQLKKLDEDSLTKQPEEVFDVLEKLGEGSYGSVYKAIHKETGQIVAIKQVPVESDLQEIIKEISIMQQCDSPHVVKYYGSYFKNTDLWIVMEYCGAGSVSDIIRLRNKTLTEDEIATILQSTLKGLEYLHFMRKIHRDIKAGNILLNTEGHAKLADFGVAGQLTDTMAKRNTVIGTPFWMAPEVIQEIGYNCVADIWSLGITAIEMAEGKPPYADIHPMRAIFMIPTNPPPTFRKPELWSDNFTDFVKQCLVKSPEQRATATQLLQHPFVRSAKGVSILRDLINEAMDVKLKRQESQQREVDQDDEENSEEDEMDSGTMVRAVGDEMGTVRVASTMTDGANTMIEHDDTLPSQLGTMVINAEDEEEEGTMKRRDETMQPAKPSFLEYFEQKEKENQINSFGKSVPGPLKNSSDWKIPQDGDYEFLKSWTVEDLQKRLLALDPMMEQEIEEIRQKYQSKRQPILDAIEAKKRRQQNF
Turning to B1, the “in vitro kinase assay (phosphorylation of GST-FOXO3 peptides)” value was “MST1 robustly phosphorylated the P2 fragment”.
